Measurements published in patent US20040228866A1 (LUDWIG INSTITUTE FOR CANCER RESEARCH, published 2004).

Legend:
[1] = target: p53 (wild type) (human, UniProt P04637 1-393); assay: cell-based or functional assay
[2] = target: T1, p63γ (UniProt Q9H3D4-5 40-487, limits assumed); assay: cell-based or functional assay
T1 sequence (looked up): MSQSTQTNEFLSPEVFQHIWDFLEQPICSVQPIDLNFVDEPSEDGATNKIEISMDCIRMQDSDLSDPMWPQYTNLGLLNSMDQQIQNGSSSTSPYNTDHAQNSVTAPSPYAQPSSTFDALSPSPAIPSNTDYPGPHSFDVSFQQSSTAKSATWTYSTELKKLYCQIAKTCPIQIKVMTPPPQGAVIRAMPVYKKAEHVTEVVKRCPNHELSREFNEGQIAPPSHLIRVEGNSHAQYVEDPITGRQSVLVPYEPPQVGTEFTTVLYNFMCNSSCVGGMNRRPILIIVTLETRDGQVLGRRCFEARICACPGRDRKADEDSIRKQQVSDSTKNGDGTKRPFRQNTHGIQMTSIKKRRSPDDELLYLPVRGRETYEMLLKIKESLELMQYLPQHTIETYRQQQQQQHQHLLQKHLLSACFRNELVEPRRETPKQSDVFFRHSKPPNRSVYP

Chain of p53 (wild type) (P04637 whole entry): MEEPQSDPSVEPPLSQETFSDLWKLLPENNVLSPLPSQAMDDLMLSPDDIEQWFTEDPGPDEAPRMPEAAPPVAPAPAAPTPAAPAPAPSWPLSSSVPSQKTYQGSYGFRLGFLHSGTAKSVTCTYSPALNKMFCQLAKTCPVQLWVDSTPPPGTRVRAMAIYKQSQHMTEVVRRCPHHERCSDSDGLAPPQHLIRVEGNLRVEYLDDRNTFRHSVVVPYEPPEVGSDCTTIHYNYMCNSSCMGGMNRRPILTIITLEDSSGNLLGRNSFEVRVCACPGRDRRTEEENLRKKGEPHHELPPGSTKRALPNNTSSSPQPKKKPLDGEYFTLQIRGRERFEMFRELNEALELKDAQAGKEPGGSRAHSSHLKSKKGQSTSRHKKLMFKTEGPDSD

B1: Apoptosis Stimulating Protein 1 (ASPP1) (other)
chain: MMPMILTVFLSNNEQILTEVPITPETTCRDVVEFCKEPGEGSCHLAEVWRGNERPIPFDHMMYEHLQIWGPRREEVKFFLRHEDSPTENSEQGGRQTQEQRTQRNVINVPGDKRTEYGVGNPRVELTLSELQDMAARQQQQIENQQQMLVAKEQRLHFLKQQERRQQQSISENEKLQKLKERVEAQENKLKKIRAMRGQVDYSKIMNGNLSAEIERFSAMFQEKKQEVQTAILRVDQLSQQLEDLKKGKLNGFQSYNGKLTGPAAVELKRLYQELQIRNQLNQEQNSKLQQQKELLNKRNMEVAMMDKRISELRERLYGKKIQLNRVNGTSSPQSPLSTSGRVAAVGPYIQVPSAGSFPVLGDPIKPQSLSIASNAAHGRSKSANDGNWPTLKQNSSSSVKPVQVAGADWKDPSVEGSVKQGTVSSQPVPFSALGPTEKPGIEIGKVPPPIPGVGKQLPPSYGTYPSPTPLGPGSTSSLERRKEGSLPRPSAGLPSRQRPTLLPATGSTPQPGSSQQIQQRISVPPSPTYPPAGPPAFPAGDSKPELPLTVAIRPFLADKGSRPQSPRKGPQTVNSSSIYSMYLQQATPPKNYQPAAHSALNKSVKAVYGKPVLPSGSTSPSPLPFLHGSLSTGTPQPQPPSESTEKEPEQDGPAAPADGSTVESLPRPLSPTKLTPIVHSPLRYQSDADLEALRRKLANAPRPLKKRSSITEPEGPGGPNIQKLLYQRFNTLAGGMEGTPFYQPSPSQDFMGTLADVDNGNTNANGNLEELPPAQPTAPLPAEPAPSSDANDNELPSPEPEELICPQTTHQTAEPAEDNNNNVATVPTTEQIPSPVAEAPSPGEEQVPPAPLPPASHPPATSTNKRTNLKKPNSERTGHGLRVRFNPLALLLDASLEGEFDLVQRIIYEVEDPSKPNDEGITPLHNAVCAGHHHIVKFLLDFGVNVNAADSDGWTPLHCAASCNSVHLCKQLVESGAAIFASTISDIETAADKCEEMEEGYIQCSQFLYGVQEKLGVMNKGVAYALWDYEAQNSDELSFHEGDALTILRRKDESETEWWWARLGDREGYVPKNLLGLYPRIKPRQRTLA
- transactivation function on the Bax promoter (Bax-luc reporter) [1]: ~6 fold
- transactivation function on the Bax promoter (Bax-luc reporter) [2]: 4 fold

B2: ASPP2 (1-1128) (other)
chain: MMPMFLTVYLSNNEQHFTEVPVTPETICRDVVDLCKEPGESDCHLAEVWCGSERPVADNERMFDVLQRFGSQRNEVRFFLRHERPPGRDIVSGPRSQDPSLKRNGVKVPGEYRRKENGVNSPRMDLTLAELQEMASRQQQQIEAQQQLLATKEQRLKFLKQQDQRQQQQVAEQEKLKRLKEIAENQEAKLKKVRALKGHVEQKRLSNGKLVEEIEQMNNLFQQKQRELVLAVSKVEELTRQLEMLKNGRIDSHHDNQSAVAELDRLYKELQLRNKLNQEQNAKLQQQRECLNKRNSEVAVMDKRVNELRDRLWKKKAALQQKENLPVSSDGNLPQQAASAPSRVAAVGPYIQSSTMPRMPSRPELLVKPALPDGSLVIQASEGPMKIQTLPNMRSGAASQTKGSKIHPVGPDWSPSNADLFPSQGSASVPQSTGNALDQVDDGEVPLREKEKKVRPFSMFDAVDQSNAPPSFGTLRKNQSSEDILRDAQVANKNVAKVPPPVPTKPKQINLPYFGQTNQPPSDIKPDGSSQQLSTVVPSMGTKPKPAGQQPRVLLSPSIPSVGQDQTLSPGSKQESPPAAAVRPFTPQPSKDTLLPPFRKPQTVAASSIYSMYTQQQAPGKNFQQAVQSALTKTHTRGPHFSSVYGKPVIAAAQNQQQHPENIYSNSQGKPGSPEPETEPVSSVQENHENERIPRPLSPTKLLPFLSNPYRNQSDADLEALRKKLSNAPRPLKKRSSITEPEGPNGPNIQKLLYQRTTIAAMETISVPSYPSKSASVTASSESPVEIQNPYLHVEPEKEVVSLVPESLSPEDVGNASTENSDMPAPSPGLDYEPEGVPDNSPNLQNNPEEPNPEAPHVLDVYLEEYPPYPPPPYPSGEPEGPGEDSVSMRPPEITGQVSLPPGKRTNLRKTGSERIAHGMRVKFNPLALLLDSSLEGEFDLVQRIIYEVDDPSLPNDEGITALHNAVCAGHTEIVKFLVQFGVNVNAADSDGWTPLHCAASCNNVQVCKFLVESGAAVFAMTYSDMQTAADKCEEMEEGYTQCSQFLYGVQEKMGIMNKGVIYALWDYEPQNDDELPMKEGDCMTIIHREDEDEIEWWWARLNDKEGYVPRNLLGLYPRIKPRQRSLA
- transactivation function on the Bax promoter (Bax-luc reporter) [1]: 20 fold
- transactivation function on the Bax promoter (Bax-luc reporter) [2]: 7 fold
